Measurements as given in US20200230253A1.

B1: long-acting iduronate-2-sulfatase conjugate (protein, part only; not given: Immunoglobulin Fc and PEG linker, human, UniProt P22304 26-550, looked up, not shown: a dimerising Fc or GST)
chain: SETQANSTTDALNVLLIIVDDLRPSLGCYGDKLVRSPNIDQLASHSLLFQNAFAQQAVCAPSRVSFLTGRRPDTTRLYDFNSYWRVHAGNFSTIPQYFKENGYVTMSVGKVFHPGISSNHTDDSPYSWSFPPYHPSSEKYENTKTCRGPDGELHANLLCPVDVLDVPEGTLPDKQSTEQAIQLLEKMKTSASPFFLAVGYHKPHIPFRYPKEFQKLYPLENITLAPDPEVPDGLPPVAYNPWMDIRQREDVQALNISVPYGPIPVDFQRKIRQSYFASVSYLDTQVGRLLSALDDLQLANSTIIAFTSDHGWALGEHGEWAKYSNFDVATHVPLIFYVPGRTASLPEAGEKLFPYLDPFDSASQLMEPGRQSMDLVELVSLFPTLAGLAGLQVPPRCPVPSFHVELCREGKNLLKHFRFRDLEEDPYLPGNPRELIAYSQYPRPSDIPQWNSDKPSLKDIKIMGYSIRTIDYRYTVWVGFNPDEFLANFSDIHAGELYFVDSDPLQDHNMYNDSQGGDLFQLLMP
modifications: N-terminus linked through a 10 kDa polyethylene glycol linker (from ALD-PEG-ALD, reductive amination) to the N-terminal proline of one chain of the immunoglobulin Fc

Columns and labels:
[1] = molecular target: mannose phosphate 6 receptor (M6PR) expressed on HepG2 cells (human); assay: cell-based or functional assay
[2] = molecular target: mannose phosphate 6 receptor (M6PR), immobilized on a CM5 chip; assay: SPR, M6PR immobilized; the reference itself
[3] = molecular target: mannose phosphate 6 receptor (M6PR), immobilized on a CM5 chip; assay: SPR (BIACORE T200), M6PR immobilized on CM5 chip by amine coupling
[4] = molecular target: mannose phosphate 6 receptor (M6PR), immobilized on a CM5 chip; assay: SPR (BIACORE T200), M6PR immobilized on CM5 chip by amine coupling, analyte 200 nM to 12.5 nM in HBS-EP
[5] = molecular target: mannose phosphate 6 receptor (M6PR), immobilized on a CM5 chip; assay: SPR, M6PR immobilized; relative to iduronate-2-sulfatase

Molecule | intracellular absorption activity (Vmax), HepG2 cells, 24 h at 37 C, ELISA of cell content [1] | relative binding affinity from KD (% of iduronate-2-sulfatase) [2] | relative ka (% of iduronate-2-sulfatase) [2] | relative kd (% of iduronate-2-sulfatase) [2] | Kd [3] | koff [3] | kon [4] | intracellular absorption activity relative to iduronate-2-sulfatase [1] | relative binding affinity from KD (% of iduronate-2-sulfatase) [5] | relative ka (% of iduronate-2-sulfatase) [5] | relative kd (% of iduronate-2-sulfatase) [5] | kon [3]
iduronate-2-sulfatase (Elaprase manufactured by Shire) (from UniProt P22304 26-550) (enzyme) | 9.5 nM | 100% | 100% | 100% | 29.1 nM | 0.00395 s⁻¹ | 136000 M⁻¹ s⁻¹ |  |  |  |  | 
B1 | 10.8 ng/mL |  |  |  | 33.1 nM | 0.00307 s⁻¹ |  | 81.4% | 88% | 67% | 78% | 92000 M⁻¹ s⁻¹
